The source of these data is patent US20150259426A1 (Novartis, published 2015).

Assay [1] addresses T1, cell-bound human DR5 (Colo205 and other human cell lines) (human, UniProt O14763 56-440). The assay can be described thus: cell-based or functional assay.
For assay [2], the target named is T1, cell-bound human DR5 (Colo205 and other …). The assay can be described thus: cell-based or functional assay. The source holds these as a separate data set.
In the next assay the target is T2, hGITR (human, UniProt Q9Y5U5).
T2 construct: extracellular domain, E. coli lysate captured on a His capture plate; Target named only on the sheet; the construct is not described in the text
T2 sequence (extracellular domain, looked up): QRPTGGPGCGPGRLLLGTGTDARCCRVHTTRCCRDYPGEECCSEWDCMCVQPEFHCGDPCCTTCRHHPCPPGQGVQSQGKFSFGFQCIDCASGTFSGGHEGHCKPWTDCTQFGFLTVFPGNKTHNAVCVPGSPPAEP
The assay can be described thus: ELISA, receptor ECD from E. coli lysate on His capture plate.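 Note: binding specificity screen across TNF receptor superfamily ectodomains, anti-V5 detection as expression reference, primary antibody incubation 1 h at room temperature.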 In general terms: An ELISA detects its analyte on a solid surface through an enzyme-linked reagent.

In assay [3] the target is T3, TNFR1 extracellular domain (TNFRSF1A, Leu34-Thr211) (UniProt P19438 34-211).
T3 construct: range 34-211; ECD cloned into pBadThioTopo; E. coli lysate on His capture plates
T3 sequence (looked up): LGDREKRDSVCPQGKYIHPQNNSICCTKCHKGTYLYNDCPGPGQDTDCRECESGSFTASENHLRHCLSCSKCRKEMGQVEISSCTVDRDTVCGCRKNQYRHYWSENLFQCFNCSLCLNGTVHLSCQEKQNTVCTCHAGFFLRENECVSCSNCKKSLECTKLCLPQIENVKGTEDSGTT
Described as above.

In assay [4] the target is T4, TNFR3 extracellular domain (TNFRSF3, Pro30-Thr224) (UniProt P36941 30-224).
T4 construct: range 30-224; ECD cloned into pBadThioTopo; E. coli lysate on His capture plates
T4 sequence (P36941 30-224 limits assumed): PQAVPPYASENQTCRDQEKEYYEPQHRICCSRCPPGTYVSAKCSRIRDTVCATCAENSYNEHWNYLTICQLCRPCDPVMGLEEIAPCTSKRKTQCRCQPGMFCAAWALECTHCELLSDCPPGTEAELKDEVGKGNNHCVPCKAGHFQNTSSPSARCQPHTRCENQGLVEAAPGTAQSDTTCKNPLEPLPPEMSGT
Described as above.

Assay [5] deals with T5, OX40 extracellular domain (TNFRSF4, Gly33-Gly212) (UniProt P43489 33-212).
T5 construct: ECD cloned into pBadThioTopo; E. coli lysate on His capture plates
T5 sequence (looked up): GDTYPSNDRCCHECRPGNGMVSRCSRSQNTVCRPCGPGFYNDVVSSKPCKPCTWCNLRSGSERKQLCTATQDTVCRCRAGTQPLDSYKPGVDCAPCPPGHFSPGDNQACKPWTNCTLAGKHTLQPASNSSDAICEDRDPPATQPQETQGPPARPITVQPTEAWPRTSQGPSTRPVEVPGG
Described as above.

The target of assay [6] is T6, CD40 extracellular domain (TNFRSF5, Val18-Leu192) (UniProt P25942 18-192).
T6 construct: range 18-192; ECD cloned into pBadThioTopo; E. coli lysate on His capture plates
T6 sequence (P25942 18-192 limits assumed): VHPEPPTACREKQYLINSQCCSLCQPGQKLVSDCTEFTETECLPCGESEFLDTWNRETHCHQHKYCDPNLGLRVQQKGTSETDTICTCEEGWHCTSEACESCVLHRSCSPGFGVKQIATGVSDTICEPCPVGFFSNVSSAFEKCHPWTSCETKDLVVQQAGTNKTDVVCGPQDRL
The description is as above.

The target in assay [7] is T7, FAS extracellular domain (TNFRSF6, Ser20-Gly175) (UniProt P25445 20-175).
T7 construct: ECD cloned into pBadThioTopo; E. coli lysate on His capture plates
T7 sequence (looked up): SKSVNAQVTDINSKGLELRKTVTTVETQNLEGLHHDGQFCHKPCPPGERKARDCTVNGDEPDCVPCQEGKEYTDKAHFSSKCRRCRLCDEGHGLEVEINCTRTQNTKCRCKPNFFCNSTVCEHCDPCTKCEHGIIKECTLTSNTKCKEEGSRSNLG
The description is as above.

Assay [8] deals with T8, DcR3 (TNFRSF6B, Val27-Ala176) (UniProt O95407 27-176).
T8 construct: range 27-176; ECD cloned into pBadThioTopo; E. coli lysate on His capture plates
T8 sequence (looked up): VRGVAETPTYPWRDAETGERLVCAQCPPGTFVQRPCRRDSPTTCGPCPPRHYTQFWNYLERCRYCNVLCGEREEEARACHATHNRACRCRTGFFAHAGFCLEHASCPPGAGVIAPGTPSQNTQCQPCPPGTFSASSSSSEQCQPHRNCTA
The description is as above.

Assay [9] concerns the target T9, CD27 extracellular domain (TNFRSF7, Thr21-Ser187) (UniProt P26842 21-187).
T9 construct: range 21-187; ECD cloned into pBadThioTopo; E. coli lysate on His capture plates
The assay is described as above.

For assay [10], the target named is T10, CD137 extracellular domain (TNFRSF9, Glu19-Ile188) (UniProt Q07011 19-188).
T10 construct: range 19-188; ECD cloned into pBadThioTopo; E. coli lysate on His capture plates
T10 sequence (Q07011 19-188 limits assumed): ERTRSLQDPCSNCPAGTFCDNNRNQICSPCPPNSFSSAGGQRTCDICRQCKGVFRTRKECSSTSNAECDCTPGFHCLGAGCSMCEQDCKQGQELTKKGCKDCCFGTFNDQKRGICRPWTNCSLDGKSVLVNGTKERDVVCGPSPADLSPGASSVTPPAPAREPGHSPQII
The description is as above.

For assay [11], the target named is T11, DcR2 extracellular domain (TNFRSF10D, Thr57-Thr198) (UniProt Q9UBN6 57-198).
T11 construct: range 57-198; ECD cloned into pBadThioTopo; E. coli lysate on His capture plates
T11 sequence (looked up): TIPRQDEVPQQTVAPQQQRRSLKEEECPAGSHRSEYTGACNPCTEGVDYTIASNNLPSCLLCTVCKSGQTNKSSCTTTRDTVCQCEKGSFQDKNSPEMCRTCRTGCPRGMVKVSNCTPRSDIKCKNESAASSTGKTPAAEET
The description is as above.

Assay [12] concerns the target T12, OPG (TNFRSF11B, Lys17-Ile197) (UniProt O00300 17-197).
T12 construct: range 17-197; ECD cloned into pBadThioTopo; E. coli lysate on His capture plates
T12 sequence (looked up): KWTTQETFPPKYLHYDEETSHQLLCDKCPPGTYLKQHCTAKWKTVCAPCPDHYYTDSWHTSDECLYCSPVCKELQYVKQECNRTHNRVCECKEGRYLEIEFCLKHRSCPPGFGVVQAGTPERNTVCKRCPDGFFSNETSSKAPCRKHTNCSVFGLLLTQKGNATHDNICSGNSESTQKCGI
Described as above.

The target of assay [13] is T13, BAFFR extracellular domain (TNFRSF13C, Met1-Gly64) (UniProt Q96RJ3 1-64).
T13 construct: range 1-64; ECD cloned into pBadThioTopo; E. coli lysate on His capture plates
T13 sequence (Q96RJ3 1-64 limits assumed): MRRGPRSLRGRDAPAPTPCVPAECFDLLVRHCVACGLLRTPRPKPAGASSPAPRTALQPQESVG
Described as above.

The target of assay [14] is T14, cynomolgus DR5-Fc fusion protein (cyno DR5 amino acids 56 to 213 fused with human IgG1 Fc) (cynomolgus; human). The assay can be described thus: SPR (Biacore), CM5 chip coated with cynomolgus DR5-Fc, 1 to 100 nM NB construct. In general terms: Surface plasmon resonance follows binding to a sensor surface in real time, without labels.
Assay [15] addresses T1, cell-bound human DR5 (Colo205 and other …). Kind of assay: FACS, periplasmic extract on Colo205 cells, anti-myc detection. (A flow cytometer gives signals particle by particle.)
For assay [16], the target named is T14, cynomolgus DR5-Fc fusion protein (cyno …). The assay can be described thus: ELISA, periplasmic extract, plate coated with cynomolgus DR5-Fc, anti-myc detection.
Assay [17] addresses T15, cell-bound cynomolgus DR5 (CHO-K1 cells transfected with the full length cynoDR5 gene) (cynomolgus).
T15 construct: whole, on cells
Kind of assay: FACS, periplasmic extract on CHO-K1 cells expressing cynomolgus DR5, anti-myc detection.

The target in assay [18] is cynomolgus DR5 (construct used not stated) (cynomolgus). Kind of assay: SPR kinetics (Biacore), cynomolgus DR5.
Assay [19] deals with T15, cell-bound cynomolgus DR5 (CHO-K1 cells …). Kind of assay: FACS saturation binding, apparent KD, cell-bound cynomolgus DR5.

T9 sequence (P26842 21-187 limits assumed): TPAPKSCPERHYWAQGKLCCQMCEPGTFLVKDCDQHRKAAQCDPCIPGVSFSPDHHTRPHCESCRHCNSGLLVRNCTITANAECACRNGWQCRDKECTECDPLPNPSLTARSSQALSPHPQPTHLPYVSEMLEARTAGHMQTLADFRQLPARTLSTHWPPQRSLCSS

B1: 11H6 tri (trivalent anti-DR5 NB construct) (VHH)
chain: EVQLVESGGGLVQPGGSLRLSCAASGTFDKINNMGWYRQAPGKQRDLVAQITPGGITDYADSVKGRFTISRDNAKDTMYLQMNSLKPEDTAVYFCNAEILKRAYIDVYVNYWGQGTQVTVSSGGGGSGGGGSGGGGSGGGGSGGGGSGGGGSGGGGSEVQLVESGGGLVQPGGSLRLSCAASGTFDKINNMGWYRQAPGKQRDLVAQITPGGITDYADSVKGRFTISRDNAKDTMYLQMNSLKPEDTAVYFCNAEILKRAYIDVYVNYWGQGTQVTVSSGGGGSGGGGSGGGGSGGGGSGGGGSGGGGSGGGGSEVQLVESGGGLVQPGGSLRLSCAASGTFDKINNMGWYRQAPGKQRDLVAQITPGGITDYADSVKGRFTISRDNAKDTMYLQMNSLKPEDTAVYFCNAEILKRAYIDVYVNYWGQGTQVTVSS
notes: three VHH units in one chain joined by GlySer linkers; not shown: CMYC-HIS6 tag
B1: the “IC50, cell survival, Colo205” value in assay [1] stood at 0.0458 nM. Further, in assay [2], the “IC50, cell survival, A549” value was ≥ 20 nM. The “IC50, cell survival, ARPE-19” value in [2] was ≥ 20 nM. In addition, the “IC50, cell survival, H226” value in assay [2] was ≥ 20 nM. Also, the “IC50, cell survival, H2052” value in [2] was 0.36 nM. The “IC50, cell survival, H2122” value in assay [2] is 0.012 nM. Further, in assay [2], the “IC50, cell survival, Huvec” value was ≥ 20 nM. Besides, the “IC50, cell survival, IMR-90” value in assay [2] is ≥ 20 nM. Further, in assay [2], the “IC50, cell survival, Jurkat” value was ≥ 20 nM. The “IC50, cell survival, M30” value in assay [2] is ≥ 20 nM. Besides, the “IC50, cell survival, MiaPaCa-2” value in [2] was ≥ 20 nM. For the same molecule, the “IC50, cell survival, Molt4” value in assay [2] was ≥ 20 nM. For the same molecule, the “IC50, cell survival, Panc-1” value in assay [2] is ≥ 20 nM. Moreover, the binding result (in the assay with hGITR; in assay [3]; in assay [4]; in [5]; in assay [6]; in assay [7]) was “no binding (tested: not stated)” throughout. Also, the binding result in [8], in assay [9], in assay [10], in assay [11], in assay [12] and in assay [13] was “no binding (tested: not stated)” throughout. For the same molecule, in assay [14], the Kd was < 0.3 nM.

B2: 10F1 (monomeric anti-DR5 NB construct) (VHH)
VHH: EVQLVESGGGLVQPGGSLRLSCAASGFTFSRYWMYWVRQAPGKGLEWVSAINSGGGDTYYRDSVRGRFTISRDNFKNTLYLQMNSLKSEDTAVYYCAKAEGPPTFSLIRTMTVDPGAQGTQVTVSS
notes: llama VHH; periplasmic extract or purified monovalent material from E. coli; not shown: C-terminal c-myc tag and (His)6 tag coded by the vector
Take B2: the mean count fluorescence is 125 in [15] and 1630 in [17]. Moreover, in assay [14], the Kd turned out to be 140 nM. In assay [16], this molecule registered an ABS405 nm of 0.124 ABS405 nm.

B3: 7A12 (monomeric anti-DR5 NB construct) (VHH)
VHH: EVQLVESGGGLVQAGGSLRLSCAASGRTFSNYAMGWFRQAPGKEREFVAALNWSGGSTYYVDSVKGRFTISRDNAKNTVYLQMNSLKPEDTAVYYCAAAGSFSLGGRPYGDDYWGKGTLVTVSS
notes: as for B2
Regarding B3, the values for the mean count fluorescence in assay [15] and in assay [17] were 1100 and 24500, respectively. This molecule came in with a Kd in assay [14] of 7.1 nM. Further, the ABS405 nm in assay [16] came to 0.341 ABS405 nm.

B4: 11D1 (monomeric anti-DR5 NB construct) (VHH)
VHH: EVQLVESGGGLVQPGGSLRLSCAASGSIDSINNMGWYRQAPGKQRELVAEITPRGRTNYADSEKSRFTISRDNAKRTVNLQMNSLKPEDTAVYYCNAEVRERGTSWYRPDYWGQGTQVTVSS
notes: as for B2
For B4, the mean count fluorescence is 919 in assay [15] and 417 in [17]. This molecule also gave a Kd in assay [14] of 220 nM. This molecule also showed an ABS405 nm in [16] of 0.213 ABS405 nm.

B5: 4E6 (monomeric anti-DR5 NB construct) (VHH)
VHH: EVQLVESGGGSVQAGDSLRLSCAASGRTFGSIRVGWFRQTPGKEREFVAAINRNDGTTYYADSVKGRFTISRDNAKNTVYMQMASLKPEDTAVYYCAAGLQYNRSADRVPVGAVYWGQGTQVTVSS
notes: llama VHH; periplasmic extract or purified monovalent material from E. coli; also called 4E6 parent; wild type 4E6; not shown: C-terminal c-myc tag and (His)6 tag coded by the vector
As for B5, the Kd turned out to be 5.5 nM in assay [18], 7.3 nM in assay [19] and 16 nM in [14]. In addition, the mean count fluorescence is 972 in assay [15] and 2870 in assay [17]. The molecule also showed an ABS405 nm in assay [16] of 0.313 ABS405 nm.

B6: 4E6-Hu (monovalent humanized, N-glycosylation knock-out variant of 4E6) (VHH)
VHH: EVQLLESGGGLVQPGGSLRLSCAASGRTFGSIRVGWFRQAPGKGREFVSAINRNDGTTYYADSVKGRFTISRDNSKNTVYLQMNSLRPEDTAVYYCAAGLQYNRAADRVPVGAVYWGQGTLVTVSS
notes: produced in E. coli and purified
For the molecule B6, the figures for the Kd in [18] and in [19] were 1.6 nM and 8.8 nM, respectively.
